Patent US20240279318A1 (NANJING LEGEND BIOTECH, published 2024)
Substitutions are numbered along the chain they refer to. Read-outs that look alike come from different tables or passages of the source. Blank lines part the entries; values can stand above or below the binder they belong to.

Experiments:
[1] = target: T1, AFP158/HLA-A*02:01 complex (human); assay: SPR, crude scFv captured, pMHC analyte
T1 construct: flowed as analyte in SPR
Method: (§1) The experiment was carried out as follows. The crude scFv protein were captured onto the sensorchip. Different concentrations (320, 160, 40 nM) of AFP158/HLA-A*02:01 complex flowed over the sensorchip surface, and were allowed to bind the antibody fragment for 100 s followed by injection of the running buffer to allow dissociation of the complex. On-rate (kd) and off-rate (kd) were calculated based on association and dissociation curve, and were used to estimate the equilibrium dissociation constant (KD).
(§2) The crude scFv muteins were then subjected to SPR affinity measurement by the method mentioned above.

[2] = target: T1, AFP158/HLA-A*02:01 complex; assay: SPR, fold vs AS170036 VL1VH1;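 further: crude scFv muteins immobilised on a sensor chip, peptide–MHC complex passed over at several concentrations, binding then buffer-driven dissociation, KD estimated from on- and off-rates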
Method: as §1, §2

[3] = target: T1, AFP158/HLA-A*02:01 complex; assay: SPR, fold vs AS170036 VL1VH1; remark: listed apart in the source;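 further: crude scFv muteins immobilised on a sensor chip, peptide–MHC complex passed over at several concentrations, binding then buffer-driven dissociation, KD estimated from on- and off-rates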
Method: as §1, §2

[4] = target: T1, AFP158/HLA-A*02:01 complex; assay: SPR, crude scFv captured, pMHC analyte; remark: listed apart in the source
Method: as §1, §2

B1: AS170036 VL1VH1-56N98F (scFv)
scFv: QSALTQPRSVSGSPGQSVTISCAGTSSDVGSENYVSWYQQHPGKAPKLMIYQVNKRASGVPDRFSGSKSGNTASLTISGLQAEDEADYYCASYRSSDFNIVFGGGTKLTVLGGGGSGGGGSGGGGSEVQLVESGGGLVQPGGSLRLSCAASGFTFSSYAMSWVRQAPGKGLEWVSTINSGTNSPYYADSVKGRFTISRDNSKNTLYLQMNSLRAEDTAVYYCAKNFFDGSWFLGPPAMDYWGQGTLVTVSSHHHHHH
notes: also called 04-AS170036 VL1VH1-56N98F
Kd [1]: 27 nM
koff [1]: 0.0097 s⁻¹
kon [1]: 360000 M⁻¹ s⁻¹
Affinity increase [2]: 8.2 fold

B3: AS170036 VL1VH1-57H98Q108D (scFv)
scFv: B1 scFv with F98Q, N182G, S183H, G234D
notes: also called 65-AS170036 VL1VH1-57H98Q108D
Affinity increase [3]: 90.7 fold
Kd [4]: 2.5 nM
koff [4]: 0.00063 s⁻¹
kon [4]: 250000 M⁻¹ s⁻¹

B5: AS170036 VL1VH1-57H98I108S (scFv)
scFv: B1 scFv with F98I, N182G, S183H, G234S
notes: also called 63-AS170036 VL1VH1-57H98I108S
Affinity increase [3]: 26.4 fold
Kd [4]: 8.5 nM
koff [4]: 0.0014 s⁻¹
kon [4]: 160000 M⁻¹ s⁻¹

B7: AS170036 VL1VH1-57K98F108D (scFv)
scFv: B1 scFv with N182G, S183K, G234D
notes: also called 68-AS170036 VL1VH1-57K98F108D
Affinity increase [3]: 54.5 fold
Kd [4]: 4.1 nM
koff [4]: 0.001 s⁻¹
kon [4]: 250000 M⁻¹ s⁻¹

B8: AS170036 VL1VH1-56Y108D (scFv)
scFv: B1 scFv with F98H, N182Y, G234D
notes: also called 17-AS170036 VL1VH1-56Y108D
Kd [1]: 6 nM
koff [1]: 0.0012 s⁻¹
kon [1]: 200000 M⁻¹ s⁻¹
Affinity increase [2]: 37.3 fold

B9: AS170036 VL1VH1-56Y108A (scFv)
scFv: B1 scFv with F98H, N182Y, G234A
notes: also called 16-AS170036 VL1VH1-56Y108A
Kd [1]: 4.7 nM
koff [1]: 0.00093 s⁻¹
kon [1]: 200000 M⁻¹ s⁻¹
Affinity increase [2]: 48.1 fold

B13: AS170036 VL1VH1-56N98I (scFv)
scFv: B1 scFv with F98I
notes: also called 05-AS170036 VL1VH1-56N98I
Kd [1]: 21 nM
koff [1]: 0.0056 s⁻¹
kon [1]: 270000 M⁻¹ s⁻¹
Affinity increase [2]: 10.7 fold

B15: AS170036 VL1VH1-56N108S (scFv)
scFv: B1 scFv with F98H, G234S
notes: also called 21-AS170036 VL1VH1-56N108S
Kd [1]: 32 nM
koff [1]: 0.0067 s⁻¹
kon [1]: 210000 M⁻¹ s⁻¹
Affinity increase [2]: 7 fold

B16: AS170036 VL1VH1-57H98Q108S (scFv)
scFv: B1 scFv with F98Q, N182G, S183H, G234S
notes: also called 66-AS170036 VL1VH1-57H98Q108S
Affinity increase [3]: 56.3 fold
Kd [4]: 4 nM
koff [4]: 0.00065 s⁻¹
kon [4]: 160000 M⁻¹ s⁻¹

B17: AS170036 VL1VH1-57H98I108A (scFv)
scFv: B1 scFv with F98I, N182G, S183H, G234A
notes: also called 61-AS170036 VL1VH1-57H98I108A
Affinity increase [3]: 67.6 fold
Kd [4]: 3.3 nM
koff [4]: 0.00076 s⁻¹
kon [4]: 230000 M⁻¹ s⁻¹

B18: AS170036 VL1VH1-57H98F108A (scFv)
scFv: B1 scFv with N182G, S183H, G234A
notes: also called 58-AS170036 VL1VH1-57H98F108A
Affinity increase [3]: 146 fold
Kd [4]: 1.5 nM
koff [4]: 0.0004 s⁻¹
kon [4]: 260000 M⁻¹ s⁻¹

B19: AS170036 VL1VH1-57H98I108D (scFv)
scFv: B1 scFv with F98I, N182G, S183H, G234D
notes: also called 62-AS170036 VL1VH1-57H98I108D
Affinity increase [3]: 45.9 fold
Kd [4]: 4.9 nM
koff [4]: 0.0012 s⁻¹
kon [4]: 250000 M⁻¹ s⁻¹

B20: AS170036 VL1VH1-56N108A (scFv)
scFv: B1 scFv with F98H, G234A
notes: also called 19-AS170036 VL1VH1-56N108A
Kd [1]: 15 nM
koff [1]: 0.0036 s⁻¹
kon [1]: 240000 M⁻¹ s⁻¹
Affinity increase [2]: 14.9 fold

Further lines, results first:

Affinity increase [3]: 43.4 fold
Kd [4]: 5.2 nM
koff [4]: 0.0013 s⁻¹
kon [4]: 260000 M⁻¹ s⁻¹
B2: AS170036 VL1VH1-57M98F108A (scFv)
scFv: B1 scFv with N182G, S183M, G234A
notes: also called 76-AS170036 VL1VH1-57M98F108A

Affinity increase [3]: 33 fold
Kd [4]: 6.8 nM
koff [4]: 0.00086 s⁻¹
kon [4]: 130000 M⁻¹ s⁻¹
B4: AS170036 VL1VH1-57K98Q108S (scFv)
scFv: B1 scFv with F98Q, N182G, S183K, G234S
notes: also called 75-AS170036 VL1VH1-57K98Q108S

Affinity increase [3]: 38.7 fold
Kd [4]: 5.8 nM
koff [4]: 0.0012 s⁻¹
kon [4]: 210000 M⁻¹ s⁻¹
B6: AS170036 VL1VH1-57K98I108D (scFv)
scFv: B1 scFv with F98I, N182G, S183K, G234D
notes: also called 71-AS170036 VL1VH1-57K98I108D

Affinity increase [3]: 58.7 fold
Kd [4]: 3.8 nM
koff [4]: 0.00077 s⁻¹
kon [4]: 200000 M⁻¹ s⁻¹
B10: AS170036 VL1VH1-57K98Q108D (scFv)
scFv: B1 scFv with F98Q, N182G, S183K, G234D
notes: also called 74-AS170036 VL1VH1-57K98Q108D

Affinity increase [3]: 29.6 fold
Kd [4]: 7.6 nM
koff [4]: 0.0018 s⁻¹
kon [4]: 240000 M⁻¹ s⁻¹
B11: AS170036 VL1VH1-57M98Q108D (scFv)
scFv: B1 scFv with F98Q, N182G, S183M, G234D
notes: also called 83-AS170036 VL1VH1-57M98Q108D

Affinity increase [3]: 20.5 fold
Kd [4]: 11 nM
koff [4]: 0.0029 s⁻¹
kon [4]: 260000 M⁻¹ s⁻¹
B12: AS170036 VL1VH1-57M98I108D (scFv)
scFv: B1 scFv with F98I, N182G, S183M, G234D
notes: also called 80-AS170036 VL1VH1-57M98I108D

Affinity increase [3]: 80.4 fold
Kd [4]: 2.8 nM
koff [4]: 0.00053 s⁻¹
kon [4]: 190000 M⁻¹ s⁻¹
B14: AS170036 VL1VH1-57K98Q108A (scFv)
scFv: B1 scFv with F98Q, N182G, S183K, G234A
notes: also called 73-AS170036 VL1VH1-57K98Q108A
